Source: PMC6396024, “Artemin and an Artemin-Derived Peptide, Artefin, Induce Neuronal Survival, and Differentiation Through Ret and NCAM” (Frontiers in Molecular Neuroscience, 2019)
Bridge positions count the residues as written; N and C are the ends. Ends that are not written are not given here. I, II: the chains in the order shown.

Legend:
GFRα2 [1] = assay: SPR binding to immobilized GFRα2/Fc; details: artefin 15.6 μM
[2] = tested on: NCAM; cerebellar granule neurons (CGNs); assay: Neurite outgrowth in CGNs with NCAM knock down (NCAM shRNA); type: cell-based, Wistar rat; details: 24 h, P2-d 8 μg/ml, ARTN 0.21 nM, artefin 1.4 μM; for neurite outgrowth in NCAM knock down neurons: NCAM shRNA; for neurite outgrowth in mock-transfected neurons: empty vector, versus control
Protocol: Cerebellar granule neurons (CGNs) were prepared from 7-day-old Wistar rat pups (Charles River Laboratories, Sulzfeld, Germany) as previously described ([Schousboe et al., 1989]). Briefly, pups were decapitated, and the cerebellum was removed and cleared from blood vessels and meninges in ice-cold modified Krebs-Ringer buffer. The cerebellum was dissociated by chopping and trypsinization. Cells were washed in Krebs-Ringer buffer containing DNAse I (Sigma, St. Louis, MO, United States) and soybean trypsin inhibitor (Sigma) to stop trypsinization, and the remaining tissue pieces were pelleted by centrifugation. Cells were then washed in Krebs-Ringer buffer containing Ca^2+ and Mg^2+ and re-suspended in appropriate Neurobasal^TM medium (Invitrogen, Taastrup, Denmark) with supplements depending on the experiment.
To evaluate the involvement of NCAM and RET in neurite outgrowth induced by either ARTN or artefin, CGNs (3 × 10^6 per transfection) were transfected with 3 μg DNA using a Nucleofector^TM 2b device and a Rat Neuron Nucleofector Kit (Amaxa, Inc., Gaithersburg, MD, United States). A kinase-deleted dominant negative RET insert was obtained by direct PCR using a commercially available clone (IRAKp961P02132Q; RZPD, Berlin, Germany) encoding full-length mouse RET coding sequence 586–3807 nt. as template. The upper primer […] contained a NheI restriction site and Kozak sequence, and the lower primer […] encoded Streptag II and NotI restriction sites. The dominant negative RET insert and the pcDNA5/FRT expression vector containing the Flp-In system were cut with NheI and NotI restriction enzymes, purified, ligated using the Rapid DNA Ligation Kit (Roche, Basel, Switzerland), and transfected into One Shot TOP10 E. coli (Invitrogen, Taastrup, Denmark). E. coli colonies containing the dominant negative RET insert were identified by PCR, and one insert-positive colony was used for plasmid purification. The identity of the purified plasmid was verified by restriction cutting and sequencing of the insert. For NCAM knock down, we used a pENTR vector containing the shRNA expression cassette for NCAM knock down ([Hansen et al., 2007]). An empty vector was used as a control. To identify transfected neurons, all transfections were performed as co-transfections with 0.5 μg pEGFP-N1, an expression vector encoding the enhanced variant of green fluorescent protein (GFP; Clontech, Palo Alto, CA, United States). Transfected CGNs were seeded in Neurobasal^TM-A medium supplemented with 2% (v/v) B27, 5% (v/v) FCS, and 2 mM Glutamax at a density of 1 × 10^5 cells/cm^2.
To estimate neurite outgrowth, neurons were fixated 24 h after stimulation and stained with rabbit anti-growth-associated-protein-43 (GAP-43) antibody (Chemicon International, Inc., Temecula, CA, United States) or anti-GFP antibody (for transfection experiment) overnight at 4°C followed by incubation with secondary Alexa-conjugated goat anti-rabbit antibodies (Invitrogen, Taastrup, Denmark). In case of experiments with plasmid transfection, the transfection efficiency was ca. 20% of total cells and the neurite outgrowth was evaluated only in GFP-positive, i.e., transfected, cells. For representative pictures, cells were additionally co-stained with Hoechst 33258.
Computer-assisted fluorescent microscopy was performed using a Nikon Diaphot 300 inverted microscope (Nikon) equipped with a Nikon Plan 20× objective and coupled to a video camera (Grundig Electronics, Germany). For each condition in each experiment, including the experiment with transfections, images of approximately 200 cells were recorded in systematic series of fields of view, and neurite outgrowth was quantified using a stereological approach as previously described ([Rønn et al., 2000]).
FIGURE 7 Neuritogenic effect of ARTN and artefin in (A) dominant negative RET or (B) knock down NCAM-expressing CGNs. […]

RET = RET phosphorylation assay in PC12-E2 cells; type: cell-based; details: PC12-E2, 10 min; ARTN 2.1 nM, artefin 12.64 μM; phosphotyrosine/total RET by immunoblot; control = 100%
Protocol: The pheochromocytoma cell line PC12-E2 (gift from Dr. Klaus Seedorf, Hagedorn Research Institute, Gentofte Municipality, Denmark) was propagated in Dulbecco’s modified Eagle’s medium (DMEM) supplemented with 5% (v/v) fetal calf serum (FCS), 10% (v/v) horse serum (HS), 1% (v/v) glutamax, 100 U/ml penicillin, and 100 μg/ml streptomycin. Cells were grown at 37°C in a humidified atmosphere containing 5% CO2.
Phosphorylation of RET was assayed in PC12-E2 cells. Cells were seeded at a density of 7 × 10^4 cells/cm^2 in 6 cm cell culture dishes (Nunc) and grown for 24 h. Cells were then grown in starvation medium (growth media with FCS switched to 1%) for 4 h before being stimulated with recombinant human ARTN (2.1 nM) or artefin (12.64 μM) for 10 min. Non-stimulated cells served as a control. Cell lysates were separated by SDS-polyacrylamide gel electrophoresis (SDS-PAGE) and transferred to an Immobilon-P membrane (Millipore, Billerica, MA, United States). Membranes were stained with mouse anti-phosphotyrosine antibody (BD Transduction Lab, New York City, NY, United States; 1:500) or RET (goat anti-mouse antibody, R&D systems, 1:500), followed by incubation with HRP-conjugated anti-mouse IgG. […] RET phosphorylation was determined as the ratio between phosphorylated and total RET. […]

[3] = tested on: surgically and chemically induced nerve injury models; details: systemic treatment; ref Gardell et al., 2003; Bennett et al., 2006; Wang et al., 2008; Wong et al., 2015; cited from earlier work
From the text: Results from Phase 1 clinical trials ([Rolan et al., 2015]; [Okkerse et al., 2016]) further support the application of ARTN for treatment of peripheral nerve injury and attenuation of neuropathic pain. A recent Phase 2 trial (SPRINT) that evaluated the sa ...

GFRα2 [4] = tested on: GFRα2; parameters: method as in Scott and Ibañéz, 2001; details: previously shown; ref Scott and Ibañéz, 2001; cited from earlier work

## I: RSPHDLSLASLLGAGKK-NH2 / II: RSPHDLSLASLLGAGK / III: RSPHDLSLASLLGAG / IV: RSPHDLSLASLLGAG (amide I:16-IV:C, I:17-II:C, II:16-III:C; C-terminus assumed) [artefin]
GFRα2 [1]
  binding to GFRα2: binds to GFRα1 and GFRα2
[2]
  neurite outgrowth in NCAM knock down neurons: abrogated in neurons where NCAM expression was knocked down (p < 0.001
  neurite outgrowth in mock-transfected neurons: promoted the neurite outgrowth in mock-transfected neurons (p < 0.01)
RET
  RET phosphorylation compared to unstimulated control: ~500%

B1: recombinant human Artemin (ARTN) (ligand, UniProt Q5T4W7 108-220, looked up)
chain: AGGPGSRARAAGARGCRLRSQLVPVRALGLGHRSDELVRFRFCSGSCRRARSPHDLSLASLLGAGALRPPPGSRPVSQPCCRPTRYEAVSFMDVNSTWRTVDRLSATACGCLG
notes: Artemin (ARTN), human, UniProt D3DPX9; source: bought: R&D Systems
[3]
  effect on behavioral symptoms of neuropathic pain: mitigates behavioral symptoms associated with neuropathic pain
[2]
  neurite outgrowth in NCAM knock down neurons: completely abolished the neurite outgrowth effect of ARTN
  neurite outgrowth in mock-transfected neurons: significantly higher level of neurite outgrowth compared to unstimulated controls (p < 0.05
GFRα2 [4]
  interaction with GFRα2: previously been shown to interact with GFRα1and GFRα2
RET
  RET phosphorylation compared to unstimulated control: ~600%
